From patent US20090070901

Biological target: des(methyl) spinach Rubisco (ribulose-1,5-bisphosphate carboxylase-oxygenase holoenzyme) (UniProt P00875)

## wild-type pea Rubisco large subunit epsilon-N-methyltransferase (pea Rubisco LSMT)
  carboxylase activity at saturating and low CO2: showed no difference in activity between native Rubisco and Rubisco with bound pea Rubisco LSMT alone
